Measured values from IntAct's records for PubMed 16697956.

B1: BH3-interacting domain death agonist (Homo sapiens), P55957 (parent)
chain: MDCEVNNGSSLRDECITNLLVFGFLQSCSDNSFRRELDALGHELPVLAPQWEGYDELQTDGNRSSHSRLGRIEADSESQEDIIRNIARHLAQVGDSMDRSIPPGLVNGLALQLRNTSRSEEDRNRDLATALEQLLQAYPRDMEKEKTMLVLALLLAKKVASHTPSLLRDVFHTTVNFINQNLRTYVRSLARNGMD
B2: Bcl-2-like protein 2 (Homo sapiens), Q92843 (parent)
chain: MATPASAPDTRALVADFVGYKLRQKGYVCGAGPGEGPAADPLHQAMRAAGDEFETRFRRTFSDLAAQLHVTPGSAQQRFTQVSDELFQGGPNWGRLVAFFVFGAALCAESVNKEMEPLVGQVQEWMVAYLETQLADWIHSSGGWAEFTALYGDGALEEARRLREGNWASVRTVLTGAVALGALVTVGAFFASK
B3: BH3-interacting domain death agonist (Homo sapiens), P55957 (parent)
chain: B1 chain
partner: B2 chain
B4: BH3-interacting domain death agonist (Homo sapiens), P55957 (parent)
chain: B1 chain
partner: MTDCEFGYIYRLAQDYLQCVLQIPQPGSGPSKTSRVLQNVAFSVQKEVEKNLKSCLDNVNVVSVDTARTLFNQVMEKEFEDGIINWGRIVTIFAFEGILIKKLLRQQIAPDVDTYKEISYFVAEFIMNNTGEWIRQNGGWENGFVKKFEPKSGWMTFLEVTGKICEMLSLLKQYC

Variants of: B1
Settings: with bcl2_human BCL2, P10415
Sequence of bcl2_human BCL2, P10415 (P10415 whole entry): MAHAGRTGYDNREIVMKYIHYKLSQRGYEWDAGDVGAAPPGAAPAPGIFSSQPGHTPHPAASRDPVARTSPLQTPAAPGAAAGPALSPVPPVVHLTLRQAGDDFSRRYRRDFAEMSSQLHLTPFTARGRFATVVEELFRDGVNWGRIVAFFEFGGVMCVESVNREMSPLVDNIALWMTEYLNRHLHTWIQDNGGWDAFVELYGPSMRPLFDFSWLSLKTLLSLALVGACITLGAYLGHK

Variant	effect of a mutation on the interaction
L90A;D95A	disrupting interaction

Variants of: B1
Settings: with BCL2L1, Q07817
Sequence of BCL2L1, Q07817 (Q07817 whole entry): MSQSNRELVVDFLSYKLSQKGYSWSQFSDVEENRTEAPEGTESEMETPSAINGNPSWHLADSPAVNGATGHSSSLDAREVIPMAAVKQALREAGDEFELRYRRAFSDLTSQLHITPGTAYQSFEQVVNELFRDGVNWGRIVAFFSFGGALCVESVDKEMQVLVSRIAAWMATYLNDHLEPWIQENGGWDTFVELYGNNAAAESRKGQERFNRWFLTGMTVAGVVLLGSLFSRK

Variant	effect of a mutation on the interaction
L90A;D95A	disrupting interaction

Variants of: B1
Settings: with mcl1_human MCL1, Q07820
Sequence of mcl1_human MCL1, Q07820 (Q07820 whole entry): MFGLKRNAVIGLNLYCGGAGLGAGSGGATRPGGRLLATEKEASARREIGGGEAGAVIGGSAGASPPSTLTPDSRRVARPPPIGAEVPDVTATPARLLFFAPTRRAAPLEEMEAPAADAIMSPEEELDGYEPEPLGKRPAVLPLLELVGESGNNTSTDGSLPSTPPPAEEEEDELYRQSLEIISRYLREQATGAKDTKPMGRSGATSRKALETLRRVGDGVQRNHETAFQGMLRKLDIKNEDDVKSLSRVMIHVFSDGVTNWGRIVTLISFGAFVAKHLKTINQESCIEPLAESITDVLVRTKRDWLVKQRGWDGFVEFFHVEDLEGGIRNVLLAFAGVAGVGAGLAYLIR

Variant	effect of a mutation on the interaction
L90A;D95A	disrupting interaction

Variants of: B2
Settings: with bid_mouse Bid

Variant	effect of a mutation on the interaction
R95P	disrupting interaction

Variants of: B3
Settings: with BCL2L2, Q92843

Variant	effect of a mutation on the interaction
L90A;D95A	disrupting interaction

Variants of: B4
Settings: with BCL2A1, Q16548

Variant	effect of a mutation on the interaction
L90A;D95A	disrupting interaction
